Measured values as given in publication PMC8407328.

Key:
[1] = molecular target: T1, His-RcrR (Streptococcus mutans UA159) (UniProt Q8DUK6); assay: EMSA
T1 sequence: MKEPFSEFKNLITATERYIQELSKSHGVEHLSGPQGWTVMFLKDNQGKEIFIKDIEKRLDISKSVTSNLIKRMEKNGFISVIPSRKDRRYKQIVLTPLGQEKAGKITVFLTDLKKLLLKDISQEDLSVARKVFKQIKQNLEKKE

[2] = molecular target: T1, His-RcrR (Streptococcus mutans UA159); assay: DNase I footprinting

| Sequence | binding [1] | binding [2] |
| --- | --- | --- |
| AAAAACTCCTTTAAATTTCGTTAAGGATAATTTTGAGCAGTAAAAAAGCTCCTAATATAAAAATAGGAGCTGCCAAATAATAGGCTGGTTTTTTTTATAGATGGCTTCTCCCAAACATCCTTATGTAATTCTTCAATATGGTAACATGAAAATAGGGAAAAAGCAAATTTGTTCAATAAAGCCA (double strand) [P1 (rcrR promoter fragment 1)] | no binding |  |
| AGCGGTTTGAGCACTTTCACTACAGCGAAAAAGCAATCGTTTAAAGTGACTTTATCACCATCAAGCTATAAAAAATTAAATTAGTTCTCATAGAAACTTTTTTCTTGACAATAGTTTAAGGAATCATTATAATAGTTTTCATGAGAACTATTATAATATTCTCATAAAAAGTGAGGTGTTTTT (double strand) [P3 (rcrR promoter fragment 3)] | binds |  |
| AGCGGTTTGAGCACTTTCACTACAGCGAAAAAGCAATCGTTTAAAGTGACTTTATCACCATCAAGCTATAAAAAATTAAATTAGTTCTCATAGAAACTTTTTTCTTGACAATAGTTTAAGGAATCATTATAATAGTTTTCATGAGAACTATTATAATATTCTCATAAAAAGTGAGGTGTTTTT (double strand) [P3 FAM-labeled] |  | binds |
| GTCTTAGAAAGTAGTCAGAAGGATTAGACTTGTTTGGAAATGAATTATTCTTTTTATGGTTGTGGCTTTTCTTAAGTAATGAAGGCGAAAAGTGAATAGTCCAGCGGACTATTTTAGAAATTCAAGGGAGTTCCATTCTTTTTGGCGCCCCTAGGTCTTACCAACACCTCATGATAGAACTATA (double strand) [P2 (rcrR promoter fragment 2)] | no binding |  |
| TAAATTTTTCCTAGGTTAACCTAGTCCTCCTTTAATATGATAACAGTACGTTTACTTTTTCATTGTAAACGATTACAAATTTGTTGGCAAGTTGTCCATAGGAAAAAAGCGCAATTTTTGTTAAAATAAAGTCAGTTGTATGCATTTTTTTAGACAAATTAGATTGAATTGCTTA (double strand) [PSMU_2038 (trehalose PTS promoter)] | binds |  |
